Source: US20250101126A1

Experiments:
[1] = target: MUC4-Tn glycopeptide … (SEQ ID NO:154) with O-linked GalNAc on the serine and threonine at positions 12 and 13; assay: BLI (Octet), MUC4 glycopeptide on biosensor
[2] = target: Tn-glycosylated MUC4 on cells (MUC4-Tn; COSMC-KO cells, cancer tissue) (UniProt Q99102); assay: flow cytometry on T3M4 COSMC-KO (T3M4-M) cells

MUC4-Tn glycopeptide … (SEQ ID NO:154) with O-linked GalNAc on the serine and threonine at positions 12 and 13, sequence (peptide, as listed by the source): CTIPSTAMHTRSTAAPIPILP

Row | Binder | Kd [1] [nM] | EC50 [2] [µg/mL]
1 | 2D5-HV1-69-C/KV2B (antibody, V domains shown) VH: QVQLVQSGAEVKKPGSSVKVSCKASGYTFSDHAIHWVRQAPGQGLEWLGYISPGNADINYAQKFQGRVTITADKSTSTAYMELSSLRSEDTAVYYCKRSMANSFDYWGQGTLVTVSS VL: DIVMTQTPLSLPVTPGEPASISCRSSQSVLYSSDEKTYLAWYLQKPGQSPQLLIYWASTRESGVPDRFSGSGSGTDFTLKISRVEAEDVGVYYCHQYLSSYTFGQGTKLEIK | 5.3 | 0.0194
2 | 2D5-HV1-3B/KV2B (antibody, V domains shown) VH: QVQLVQSGAEVKKPGASVKVSCKASGYTFTDHAIHWVRQAPGQRLEWLGYISPGNDDIQYSQKFKGRVTITADKSASTAYMELSSLRSEDTAVYYCKRSMANSFDYWGQGTLVTVSS VL: DIVMTQTPLSLPVTPGEPASISCRSSQSVLYSSDEKTYLAWYLQKPGQSPQLLIYWASTRESGVPDRFSGSGSGTDFTLKISRVEAEDVGVYYCHQYLSSYTFGQGTKLEIK | 7.7 | 0.0163

Results, then the binder that gave them:

Row | Kd [1] [nM] | EC50 [2] [µg/mL] | Binder
3 | 3.3 | 0.0248 | 2D5-HV1-69-B/KV2B (antibody, V domains shown) VH: QVQLVQSGAEVKKPGSSVKVSCKASGYTFTDHAIHWVRQAPGQGLEWLGYISPGNDDIQYNQKFKGRVTITADKSTSTAYMELSSLRSEDTAVYYCKRSMANSFDYWGQGTLVTVSS VL: DIVMTQTPLSLPVTPGEPASISCRSSQSVLYSSDEKTYLAWYLQKPGQSPQLLIYWASTRESGVPDRFSGSGSGTDFTLKISRVEAEDVGVYYCHQYLSSYTFGQGTKLEIK
4 | 4.1 | 0.0179 | 2D5-HV1-69-A/KV2A (antibody, V domains shown) VH: QVQLVQSGAEVKKPGSSVKVSCKASGYTFTDHAIHWVRQAPGQGLEWLGYISPGNDDIQYNAKFKGRATLTADKSTSTAYMELSSLRSEDTAVYFCKRSMANSFDYWGQGTLVTVSS VL: DIVLTQTPLSLPVTPGEPASISCKSSQSVLYSSDQKNYLAWYLQKPGQSPQLLIYWASTRESGVPDRFSGSGSGTDFTLKISRVEAEDVGVYYCHQYLSSYTFGQGTKLEIK
